Where no end group is shown, it is not given here. [ ]: non-standard residue; d: D form. TAMRA = carboxytetramethylrodamine
Legend:
Caco-2 monolayers [1] = assay: Transport of peroxidase conjugate across Caco-2 monolayers; settings: 25 µg/ml apical, peroxidase activity
Experimental: A two-chamber Caco-2 model was used to evaluate the transport of a conjugate comprising peroxidase and a peptide comprising an amino acid sequence of SEQ. ID. NO.:1 across the intestinal barrier (IB) in vitro. […] The medium containing isotope-labeled compound, the SEQ. ID. NO.:1-Peroxidase conjugate ([…]) or Control Peroxidase conjugate ([…]) was added to the apical side of cultured Caco-2 monolayers.

Caco-2 monolayers [2] = assay: Inhibition of phage transport across Caco-2 monolayers by SEQ. ID. NO.:1-Peroxidase conjugate; settings: 50 μg/ml conjugate, 3 hours
Experimental: The cell monolayers on the insert filter apically and basolaterally were rinsed twice on each side with PBS and pre-incubated with pre-warmed D-MEM for 30 min. The medium in apical chamber was gently removed. […] The inserts were transferred to the new chamber. ^3H-Manitol was used as a probe to monitor Caco-2 monolayer leakiness. The medium containing isotope-labeled compound, a phage that expresses a peptide comprising an amino acid sequence of SEQ. […] NO.:4 (5×10^9 cfu/ml) or wild-type phage (Control phage 1.5×10^9 cfu/ml) in the presence and absence of 50 μg/ml of SEQ. […] NO.:1-Peroxidase conjugate was added to the apical side. After 3 hours incubation, the media from apical and basolateral sides of the chamber was collected and used to determine the phage and ^3H-manitol transport across Caco-2 monolayers. The relative transport of compounds in % through Caco-2 was calculated as:
where Cb is a concentration of compound in basolateral chamber, Ca is a concentration of compound in the apical chamber, Vb is a volume of media in basolateral chamber and Va is a volume of media in the apical chamber. The transport of phage that expresses a peptide comprising an amino acid sequence of SEQ. […] NO.:4, or peptide SEQ. […] NO.:1-Peroxidase conjugate was detected.

Caco-2 monolayers [3] = assay: Transport of peptides across Caco-2 monolayers (Transwell, fluorescence); format: in vitro ADME, human; settings: 50 micromol/L apical
Experimental: The desired numbers of Transwell (6.5mm diameter, 0.4 μm pore size) were placed in the wells of the tissue culture plates. The filters were wetted with medium (0.1 ml to the apical and 0.6 ml to the basolateral sides of Transwell) for 30 min in the CO2 incubator before the harvest of the cells from the flasks. The cells were re-suspended in the medium 5×10^5 cells/ml and 0.2 ml of cell suspension medium was added to the apical side of the Transwell and cultured in the CO2 incubator. The medium was changed every second day for 8-12 days to obtain well-differentiated monolayers suitable for transport experiences.
The medium in apical chamber was gently removed. […] The inserts were transferred to the new chamber. […] Peptide SEQ. ID. NO.: 2, or SEQ. ID.
The concentration of peptide in sample was determined by the fluorescence of the sample using excitation 530 nm, emission 590 nm. The concentration of dextran in samples was determined by the fluorescence of the sample using excitation 480 nm, emission 530 nm.

CACO 2 cells = assay: Digestion of peptide in apical chamber of Caco-2 cells (HPLC); format: in vitro ADME, human
Experimental: Digestion of peptide SEQ. ID. NO.:2 in apical chamber was determined using HPLC. The samples were diluted 100 times with the media, and 0.200 mL of each was injected on a column RP-HPLC column Vydac 218TP54, pre equilibrated 15 minutes with 5 acetonitroile/water (10 mM phosphoric acid) at flow rate 1 mL per minute. Sample was eluted with two component gradient 1% per minute of acetonitrole (10 mM phosphoric acid)/water (10 mM phosphoric acid) at flow rate 1 mL per minute. Fluorescent detection was used with excitation wavelength 555 nm and emission wavelength 580 nm. The peptide SEQ. ID. NO.: 2 was eluted as sharp peak at 22.3 min. The percentage of remaining peptide was calculated as: […]
where A—area under the peak at 22.3 min, SUM(Ai)—the sum of area of all peaks eluted between 13 and 26 minutes.

Substance | Transport through Caco-2 monolayers, P, % (Caco-2 monolayers [1]; 2 hours) [%] | Transport through Caco-2 monolayers, P, % (Caco-2 monolayers [1]; 4 hours) [%] | inhibition of transport of SEQ. ID. NO.:4 phage across Caco-2 monolayers (Caco-2 monolayers [2]) | Transport [%] (Caco-2 monolayers [3]; 0.5 h) | Transport [%] (Caco-2 monolayers [3]; 1.0 h) | Transport [%] (Caco-2 monolayers [3]; 2.0 h) | Transport [%] (Caco-2 monolayers [3]; […]) | Remaining peptide [%] (CACO 2 cells; 0.5 h incubation with CACO 2 cells) | Remaining peptide [%] (CACO 2 cells; 1 h incubation with CACO 2 cells) | Remaining peptide [%] (CACO 2 cells; 2 h incubation with CACO 2 cells)
SEQ. ID. NO.:1-Peroxidase Conjugate (Ac-CRVLDGDRTRWG; also: peroxidase conjugate) | 0.35 ± 0.014 | 0.705 ± 0.09 | completely inhibited |  |  |  |  |  |  | 
tamra-D-Ala-D-Ser-D-Ala-D-Arg-D-Val-D-Leu-D-Asp-D-Gly-D-Asp-D-Arg-D-Thr-D-Arg-D-Trp-D-Gly-NH2 ({TAMRA}-[dA][dS][dA][dR][dV][dL][dD]G[dD][dR][dT][dR][dW]G-NH2) [SEQ. ID. NO. 3] |  |  |  | 0.06 | 0.43 | 1.03 | 0.30 |  |  | 
tamra-Ala-Ser-Ala-Arg-Val-Leu-Asp-Gly-Asp-Arg-Thr-Arg-Trp-Gly-NH2 ({TAMRA}-ASARVLDGDRTRWG-NH2) [SEQ. ID. NO.: 2] |  |  |  | 0.22 | 0.16 | 1.23 | 0.71 | 86 | 84 | 63
dextran [reference compound] |  |  |  | 0.05 | 0.16 | 0.63 | 0.38 |  |  | 
